The source of these data is patent JP2014141434A (dated 2014).

Where a chain is given by its changes, count along the chain named.

First the molecules themselves.
T1: rROBO4−ECD (ヒトROBO4細胞外領域ポリペプチド) (human, UniProt Q8WZ75 28-461)
T1 construct: It was cloned in pEF6/V5-His-TOPO; also called ヒトROBO4−ECD; rROBO4-ECD
T1 sequence: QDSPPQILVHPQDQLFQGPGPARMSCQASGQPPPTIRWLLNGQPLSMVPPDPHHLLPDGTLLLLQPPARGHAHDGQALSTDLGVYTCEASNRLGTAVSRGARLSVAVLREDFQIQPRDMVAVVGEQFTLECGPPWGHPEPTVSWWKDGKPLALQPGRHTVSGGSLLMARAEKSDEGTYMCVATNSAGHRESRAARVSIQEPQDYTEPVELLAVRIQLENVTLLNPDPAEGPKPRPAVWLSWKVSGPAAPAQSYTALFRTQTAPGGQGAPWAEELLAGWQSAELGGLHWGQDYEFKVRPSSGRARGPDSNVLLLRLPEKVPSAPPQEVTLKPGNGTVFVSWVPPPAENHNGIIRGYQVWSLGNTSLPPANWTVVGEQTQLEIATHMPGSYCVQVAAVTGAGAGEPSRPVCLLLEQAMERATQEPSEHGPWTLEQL

B1: ヒト化MAb1抗体 H−1140 (antibody, human IgG2, kappa, V domains shown)
VH: EVQLVESGGGLVQPGGSLRLSCAASGFTFSTYAMSWVRQAPGKGLEWVATISQGGTYTYYPDSVKGRFTISRDNAKNTLYLQMNSLRAEDTAVYYCARLIYYDYLDYWGQGTLVTVSS
VL: DIVMTQSPLSLPVTLGEPASISCRSSQSLENSNGNTYLNWYLQKPGQSPQLLIYRVSNRFSGVPDRFSGSGSGTDFTLKISRVEAEDVGVYYCLQVTHVPWTFGPGTKVDIKR
notes: Humanised IgG2 / kappa; also called H-1140; hMAb1-H2 / hMAb1-L1
B2: ヒト化MAb1抗体 H−2040 (antibody, human IgG2, kappa, V domains shown)
VH: B1 VH with G44R, Q53N
VL: B1 VL
notes: Humanised IgG2 / kappa; also called H-2040; hMAb1-H3 / hMAb1-L1
B3: ヒト化MAb1抗体 H−1040 (antibody, human IgG2, kappa, V domains shown)
VH: B1 VH with Q53N
VL: B1 VL
notes: Humanised IgG2 / kappa; also called H-1040; hMAb1-H1 / hMAb1-L1

The experiment deals with T1, rROBO4−ECD (ヒトROBO4細胞外領域ポリペプチド). The experiment is described as follows: SPR, Biacore 3000; antibody captured by anti-human IgG on CM5 chip, rROBO4-ECD (0.1-200 nM) as analyte, 1:1 model. In general terms: SPR reads the build-up and loss of mass on a sensor chip optically.
With B1, the affinity, expressed as Kd, was 3.9 nM. As to B2, the Kd (as a rule, the constant that tells how readily two partners part at equilibrium) was 0.4 nM. Compared with the last molecule, the Kd is about 9.8-fold lower. For B3, binding was characterised by a dissociation constant (Kd) of 0.41 nM. The Kd values of the last two molecules are within 1.5-fold of each other.
